Where two headings read alike, the source gives them in different places.
Experiments:
physchem = assay type: physicochemical; conditions: pH 7.4
Protocol: To determine the n‐octanol/PBS distribution coefficients (log D 7.4), 650 μL octan‐1‐ol and 650 μL phosphate‐buffered saline (PBS, pH 7.4) were combined in a 1.5 mL Eppendorf tube. Approximately 0.5 MBq of the radiolabeled compound was added and vortexed for 2 min at 2850 rpm using a Vortex Genie2 (Scientific Industries). The samples were centrifuged (11 500 g, 10 min), after which 100 μL of the organic phase and 10 μL of the aqueous phase were taken out and the activities of the aliquots were quantified in a γ‐counter.

in vivo = conditions: female, CB17 SCID, mouse, iv, 120 pmol, total radioactivity
Protocol: (§1) Mice were used for biodistribution or PET when tumors had grown to a diameter of 8–10 mm (4–5 weeks after inoculation). β6 Integrin immunohistochemistry (IHC) was performed as described before.37
(§2) For biodistribution studies, the mice were administered approximately 120 pmol (3–8 MBq, depending on radiolabeling yield and decay) of the radiopharmaceuticals into the tail vein and allowed to wake up with access to food and water. […] Animals were sacrificed 90 min after injection, blood was immediately taken from the heart with a syringe, and the organs of interest (heart, lung, liver, spleen, pancreas, stomach (empty), small intestine (empty), large intestine (empty), kidneys, adrenals, muscle, tongue, tumor, tail) were dissected. The activity in weighed tissue samples was quantified by using a γ‐counter. Injected dose per gram tissue (%ID/g) was calculated from the organ weights and counted activities.

αvβ8 integrin [1] = target: T1, αvβ8 integrin (Homo sapiens, UniProt P06756+P26012); assay: Solid-phase binding assay (ELISA on immobilized integrins), αvβ8; conditions: LAP(TGF-β)-coated plates, non-radioactive 69/71Ga complex, determined in duplicate, referenced to internal standard […], read-out: IC50 (95 % confidence interval) αvβ8
T1 sequence (P06756 31-992 limits assumed): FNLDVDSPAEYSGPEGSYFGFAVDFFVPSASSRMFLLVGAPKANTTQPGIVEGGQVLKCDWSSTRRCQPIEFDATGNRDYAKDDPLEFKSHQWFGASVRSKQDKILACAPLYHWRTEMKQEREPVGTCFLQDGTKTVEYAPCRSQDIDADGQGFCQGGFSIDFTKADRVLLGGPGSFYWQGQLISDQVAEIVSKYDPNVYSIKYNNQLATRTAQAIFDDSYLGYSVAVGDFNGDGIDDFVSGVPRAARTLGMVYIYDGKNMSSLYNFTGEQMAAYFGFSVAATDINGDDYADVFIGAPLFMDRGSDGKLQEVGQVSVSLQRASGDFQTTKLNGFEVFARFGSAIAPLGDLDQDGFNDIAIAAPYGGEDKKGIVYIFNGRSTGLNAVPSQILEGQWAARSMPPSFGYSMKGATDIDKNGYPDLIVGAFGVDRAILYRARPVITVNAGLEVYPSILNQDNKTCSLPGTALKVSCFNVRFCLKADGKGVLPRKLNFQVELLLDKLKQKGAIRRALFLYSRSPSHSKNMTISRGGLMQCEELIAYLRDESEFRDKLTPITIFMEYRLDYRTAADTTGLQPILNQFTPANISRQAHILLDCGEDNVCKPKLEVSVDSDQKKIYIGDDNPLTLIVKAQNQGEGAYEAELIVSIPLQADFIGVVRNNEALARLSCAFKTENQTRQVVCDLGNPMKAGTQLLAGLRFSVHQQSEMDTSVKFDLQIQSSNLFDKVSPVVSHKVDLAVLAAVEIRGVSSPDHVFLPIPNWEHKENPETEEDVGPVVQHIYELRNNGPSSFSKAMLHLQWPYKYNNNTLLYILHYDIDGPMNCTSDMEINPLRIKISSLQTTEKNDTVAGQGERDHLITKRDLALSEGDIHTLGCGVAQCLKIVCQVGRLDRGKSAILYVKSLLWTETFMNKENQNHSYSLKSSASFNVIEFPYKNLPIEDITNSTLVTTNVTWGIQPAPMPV
T1 sequence (P26012 43-684 limits assumed): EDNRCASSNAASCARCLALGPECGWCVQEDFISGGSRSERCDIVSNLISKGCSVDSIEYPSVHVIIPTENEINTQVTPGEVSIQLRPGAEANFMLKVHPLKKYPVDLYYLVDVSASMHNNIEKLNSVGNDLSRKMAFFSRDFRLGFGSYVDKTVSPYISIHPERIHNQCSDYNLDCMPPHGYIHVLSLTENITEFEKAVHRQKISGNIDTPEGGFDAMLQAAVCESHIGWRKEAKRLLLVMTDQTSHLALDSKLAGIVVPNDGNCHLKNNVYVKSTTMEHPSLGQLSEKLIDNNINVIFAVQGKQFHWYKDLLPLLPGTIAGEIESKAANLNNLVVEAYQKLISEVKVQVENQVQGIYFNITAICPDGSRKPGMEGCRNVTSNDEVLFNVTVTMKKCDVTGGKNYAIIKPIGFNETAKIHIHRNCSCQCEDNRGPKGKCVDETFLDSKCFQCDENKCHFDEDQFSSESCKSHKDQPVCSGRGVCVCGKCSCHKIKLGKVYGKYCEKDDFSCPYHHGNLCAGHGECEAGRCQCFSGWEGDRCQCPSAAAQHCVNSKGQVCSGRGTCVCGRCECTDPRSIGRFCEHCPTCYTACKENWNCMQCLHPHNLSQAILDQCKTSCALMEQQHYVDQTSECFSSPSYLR
Protocol: (§3) After washing the plates with PBS‐T buffer (phosphate‐buffered saline/Tween20), free binding sites were blocked by incubation with TS‐B buffer (Tris‐saline/BSA). […] Surface‐bound integrin was detected by subsequent incubation with a specific primary antibody and a secondary peroxidase‐labeled antibody (anti‐mouse IgG‐POD, Sigma–Aldrich). After addition of the dye SeramunBlau (Seramun Diagnostic, Heidesee, Germany) and quenching of the reaction by addition of 3 M H2SO4, the absorbance at λ=450 nm was measured with a microplate reader (Tecan Genius, Männedorf, Switzerland). The IC50 value for each compound was determined in duplicate and the inhibition curves were analyzed by using OriginPro 9.0 software.

αvβ6 integrin [2] = target: T2, αvβ6 integrin (Homo sapiens, UniProt P06756+P18564); assay: Solid-phase binding assay (ELISA on immobilized integrins), αvβ6
T2 sequence (P06756 31-992 limits assumed): as the sequence (P06756 31-992 limits assumed) above
T2 sequence (P18564 22-707 limits assumed): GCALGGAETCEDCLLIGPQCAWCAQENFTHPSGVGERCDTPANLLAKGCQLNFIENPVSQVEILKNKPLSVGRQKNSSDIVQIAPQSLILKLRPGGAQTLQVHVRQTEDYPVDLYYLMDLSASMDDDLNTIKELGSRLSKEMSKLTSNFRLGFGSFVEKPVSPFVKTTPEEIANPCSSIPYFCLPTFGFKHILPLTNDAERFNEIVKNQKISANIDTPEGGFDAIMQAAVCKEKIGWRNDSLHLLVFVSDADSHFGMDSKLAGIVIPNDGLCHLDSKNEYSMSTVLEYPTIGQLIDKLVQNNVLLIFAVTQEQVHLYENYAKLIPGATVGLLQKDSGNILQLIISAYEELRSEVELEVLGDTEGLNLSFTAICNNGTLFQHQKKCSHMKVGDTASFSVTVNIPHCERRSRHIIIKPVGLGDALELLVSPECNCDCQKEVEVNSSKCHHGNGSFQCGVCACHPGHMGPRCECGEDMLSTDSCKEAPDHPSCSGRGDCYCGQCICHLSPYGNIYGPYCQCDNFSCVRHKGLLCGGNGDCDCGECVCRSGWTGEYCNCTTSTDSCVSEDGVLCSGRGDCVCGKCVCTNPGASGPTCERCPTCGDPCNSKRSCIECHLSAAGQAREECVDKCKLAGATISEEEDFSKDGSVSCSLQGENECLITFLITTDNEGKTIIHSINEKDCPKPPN
Protocol: as §3

[3] = system: H2009 xenografted SCID mice; assay: in vivo; conditions: mouse
Protocol: as §1, §2

αvβ6 integrin [4] = target: T2, αvβ6 integrin; conditions: activity of the internal standard to which measured IC50 values were referenced; cited from earlier work
From the text: (§4) Table 1 Integrin affinities (expressed as 50 % inhibition concentrations, IC50), IC50‐based selectivities, and octanol/PBS distribution coefficients (log D 7.4).

αvβ8 integrin [5] = target: T1, αvβ8 integrin; conditions: activity of the internal standard to which measured IC50 values were referenced; cited from earlier work
From the text: as §4

[6] = %ID/g Tumor H2009 (tumor uptake)
[7] = tumor/organ ratio Heart (myocard)
[8] = tumor/organ ratio Large intestine (empty)
[9] = tumor/organ ratio Small intestine (empty)
[10] = tumor/organ ratio Stomach (empty)

N=C(N)NCCC[C@@H]1NC(=O)CC[C@@H](C(=O)NCCCC[C@H](NC(=O)c2ccc(NC(=O)CN3CCN(CC(=O)O)CCN(CC(=O)O)CC3)cc2)C(N)=O)NC(=O)[C@H](C2CCCCC2)NC(=O)[C@H](CC(=O)O)NC(=O)CNC1=O [^68Ga‐NOTA‐SDM17, metal not drawn]
logD (physchem): -3.91 ± 0.07 | tissue uptake at 1.5 h (in vivo; %ID/g Adrenals): 0.28 ± 0.09 %ID/g | tissue uptake at 1.5 h (in vivo; %ID/g Blood): 0.64 ± 0.05 %ID/g | tissue uptake at 1.5 h (in vivo; %ID/g Heart (myocard)): 0.2 ± 0.03 %ID/g | tissue uptake at 1.5 h (in vivo; %ID/g Kidneys): 3.74 ± 0.73 %ID/g | tissue uptake at 1.5 h (in vivo; %ID/g Large intestine (empty)): 0.22 ± 0.03 %ID/g | tissue uptake at 1.5 h (in vivo; %ID/g Liver): 0.33 ± 0.04 %ID/g | tissue uptake at 1.5 h (in vivo; %ID/g Lung): 0.47 ± 0.03 %ID/g | tissue uptake at 1.5 h (in vivo; %ID/g Muscle): 0.07 ± 0.01 %ID/g | tissue uptake at 1.5 h (in vivo; %ID/g Pancreas): 0.15 ± 0.02 %ID/g | tissue uptake at 1.5 h (in vivo; %ID/g Small intestine (empty)): 0.22 ± 0.01 %ID/g | tissue uptake at 1.5 h (in vivo; %ID/g Spleen): 0.32 ± 0.06 %ID/g | tissue uptake at 1.5 h (in vivo; %ID/g Stomach (empty)): 0.34 ± 0.06 %ID/g | tissue uptake at 1.5 h (in vivo; %ID/g Tongue): 0.28 ± 0.03 %ID/g | tissue uptake at 1.5 h (in vivo; [6]): 0.66 ± 0.03 %ID/g | tissue to tissue ratio at 1.5 h (in vivo; tumor/organ ratio Adrenals): 2.5 ± 0.7 | tissue to tissue ratio at 1.5 h (in vivo; tumor/organ ratio Blood): 1 ± 0.1 | tissue to tissue ratio at 1.5 h (in vivo; [7]): 3.3 ± 0.6 | tissue to tissue ratio at 1.5 h (in vivo; tumor/organ ratio Kidneys): 0.2 | tissue to tissue ratio at 1.5 h (in vivo; [8]): 3.1 ± 0.4 | tissue to tissue ratio at 1.5 h (in vivo; tumor/organ ratio Liver): 2 ± 0.3 | tissue to tissue ratio at 1.5 h (in vivo; tumor/organ ratio Lung): 1.4 ± 0.1 | tissue to tissue ratio at 1.5 h (in vivo; tumor/organ ratio Muscle): 9.7 ± 0.7 | tissue to tissue ratio at 1.5 h (in vivo; tumor/organ ratio Pancreas): 4.4 ± 0.8 | tissue to tissue ratio at 1.5 h (in vivo; [9]): 3 ± 0.1 | tissue to tissue ratio at 1.5 h (in vivo; tumor/organ ratio Spleen): 2.1 ± 0.4 | tissue to tissue ratio at 1.5 h (in vivo; [10]): 2 ± 0.4 | tissue to tissue ratio at 1.5 h (in vivo; tumor/organ ratio Tongue): 2.4 ± 0.3

N=C(N)NCCC[C@@H]1NC(=O)CC[C@@H](C(=O)NCCCC[C@H](NC(=O)CCc2cn(CCCNC(=O)CCP(=O)(O)CN3CCN(CP(=O)(O)CCC(=O)NCCCn4cc(CCC(=O)N[C@@H](CCCCNC(=O)[C@@H]5CCC(=O)N[C@@H](CCCNC(=N)N)C(=O)NCC(=O)N[C@@H](CC(=O)O)C(=O)N[C@@H](C6CCCCC6)C(=O)N5)C(N)=O)nn4)CCN(CP(=O)(O)CCC(=O)NCCCn4cc(CCC(=O)N[C@@H](CCCCNC(=O)[C@@H]5CCC(=O)N[C@@H](CCCNC(=N)N)C(=O)NCC(=O)N[C@@H](CC(=O)O)C(=O)N[C@@H](C6CCCCC6)C(=O)N5)C(N)=O)nn4)CC3)nn2)C(N)=O)NC(=O)[C@H](C2CCCCC2)NC(=O)[C@H](CC(=O)O)NC(=O)CNC1=O [^68Ga‐TRAP(SDM17)3, metal not drawn]
IC50 (αvβ8 integrin [1]): 172 nM | logD (physchem): -4.08 ± 0.07 | IC50 (αvβ6 integrin [2]; ELISA, LAP(TGF-β)-coated plates, non-radioactive 69/71Ga complex, determined in duplicate, referenced to internal standard […], read-out: IC50 (95 % confidence interval) αvβ6): 0.26 nM | Selectivity for αvβ6 over αvβ8 (αvβ6 integrin [2]; IC50-based selectivity factor (IC50 αvβ8 / IC50 αvβ6)): 662 | higher tumor uptake than monomer [3]: threefold | tissue uptake at 1.5 h (in vivo; %ID/g Adrenals): 0.16 ± 0.02 %ID/g | tissue uptake at 1.5 h (in vivo; %ID/g Blood): 0.19 ± 0.05 %ID/g | tissue uptake at 1.5 h (in vivo; %ID/g Heart (myocard)): 0.1 ± 0.03 %ID/g | tissue uptake at 1.5 h (in vivo; %ID/g Kidneys): 21.8 ± 2.7 %ID/g | tissue uptake at 1.5 h (in vivo; %ID/g Large intestine (empty)): 0.41 ± 0.09 %ID/g | tissue uptake at 1.5 h (in vivo; %ID/g Liver): 0.34 ± 0.21 %ID/g | tissue uptake at 1.5 h (in vivo; %ID/g Lung): 0.71 ± 0.15 %ID/g | tissue uptake at 1.5 h (in vivo; %ID/g Muscle): 0.1 ± 0.02 %ID/g | tissue uptake at 1.5 h (in vivo; %ID/g Pancreas): 0.07 ± 0.01 %ID/g | tissue uptake at 1.5 h (in vivo; %ID/g Small intestine (empty)): 0.31 ± 0.08 %ID/g | tissue uptake at 1.5 h (in vivo; %ID/g Spleen): 0.58 ± 0.11 %ID/g | tissue uptake at 1.5 h (in vivo; %ID/g Stomach (empty)): 1.04 ± 0.22 %ID/g | tissue uptake at 1.5 h (in vivo; %ID/g Tongue): 0.35 ± 0.09 %ID/g | tissue uptake at 1.5 h (in vivo; [6]): 2.06 ± 0.34 %ID/g | tissue to tissue ratio at 1.5 h (in vivo; tumor/organ ratio Adrenals): 12.5 ± 1.6 | tissue to tissue ratio at 1.5 h (in vivo; tumor/organ ratio Blood): 11.2 ± 1.9 | tissue to tissue ratio at 1.5 h (in vivo; [7]): 21.7 ± 3 | tissue to tissue ratio at 1.5 h (in vivo; tumor/organ ratio Kidneys): 0.1 | tissue to tissue ratio at 1.5 h (in vivo; [8]): 5.1 ± 1.2 | tissue to tissue ratio at 1.5 h (in vivo; tumor/organ ratio Liver): 8.7 ± 5.2 | tissue to tissue ratio at 1.5 h (in vivo; tumor/organ ratio Lung): 3 ± 0.4 | tissue to tissue ratio at 1.5 h (in vivo; tumor/organ ratio Muscle): 22.3 ± 6.6 | tissue to tissue ratio at 1.5 h (in vivo; tumor/organ ratio Pancreas): 29.7 ± 3 | tissue to tissue ratio at 1.5 h (in vivo; [9]): 7 ± 1.7 | tissue to tissue ratio at 1.5 h (in vivo; tumor/organ ratio Spleen): 3.6 ± 0.6 | tissue to tissue ratio at 1.5 h (in vivo; [10]): 2 ± 0.4 | tissue to tissue ratio at 1.5 h (in vivo; tumor/organ ratio Tongue): 6.2 ± 1.8

RTDLDSLRT
IC50 (αvβ6 integrin [4]): 33 nM | IC50 (αvβ8 integrin [5]): 100 nM

Source: paper PMC7586803, “Click‐Chemistry (CuAAC) Trimerization of an αvβ6 Integrin Targeting Ga‐68‐Peptide: Enhanced Contrast for in‐Vivo PET Imaging of Human Lung Adenocarcinoma Xenografts” (Chembiochem, 2020)
